The values below come from article PMC4947014.

Substitutions are numbered along the chain they refer to. Numbers in names are those of the source.

Assay [1] has as its target Im7 L18AL19AL37AH40W (E. coli).
Assay [2] deals with Im7 L18AL19AL37AH40W (E. coli). In words: stopped-flow fluorescence.
For the next assay, the target named is Im7, wild type (E. coli). In words: stopped-flow fluorescence.

B1: Spy, wild type (natural protein)
chain: ADTTTAAPADAKPMMHHKGKFGPHQDMMFKDLNLTDAQKQQIREIMKGQRDQMKRPPLEERRAMHDIIASDTFDKVKAEAQIAKMEEQRKANMLAHMETQNKIYNILTPEQKKQFNANFEKRLTERPAAKGKMPATAE
A word on the stoichiometry N: it is the number of molecules, sites or subunits per partner or assembly. Usually kon stands for the second-order rate constant of association. High values mean faster complex formation, low ones slower complex formation. Usually koff stands for the rate constant with which the complex falls apart. A lower koff goes with a long-lived complex. With B1, the stoichiometry N in assay [1] turned out to be 1. Besides, in assay [2], the kon was determined as 1.2e+08 M⁻¹ s⁻¹. For the same molecule, in the assay with Im7, wild type (E. coli), the kobs of release of native Im7 (double mixing, chase after 6 ms) turned out to be 141 s⁻¹ and the koff worked out at 131 s⁻¹.

B2: Spy Q100L (natural protein)
chain: B1 chain with Q100L
On to B2, for which, in assay [2], the fold increase in affinity (Kd) over SpyWT worked out at 150 fold and the fold lower release rate constant (koff) than SpyWT amounted to 130 fold.

B3: Spy H96L (natural protein)
chain: B1 chain with H96L
For the molecule B3, in assay [2], the fold increase in affinity (Kd) over SpyWT was found to be 7 fold and the fold lower release rate constant (koff) than SpyWT amounted to 5 fold.
